For orientation: IC50 means the midpoint of a concentration-inhibition curve. Low readings indicate inhibition by little substance, high ones a need for much substance.

Results on ten compounds are retold here after patent publication US9957299B2, “Peptidomimetic macrocycles” (AILERON THERAPEUTICS, INC., priority 2010, dated 2018).

Series [1] is described as follows: circular dichroism. The conditions noted are these: aqueous, '0% TFE' (buffer not stated; general: 50 mM potassium phosphate pH 7 or water); pH ns; ns °C; 25-50 uM (general text). In general terms: Circular dichroism is widely used to follow secondary structure.
The target of series [2] is HDM2 (Homo sapiens, UniProt Q00987). As to the kind of experiment: FP Competition Blinding Assay | HDM2 IC50 (nM).

Numbered stars: 1 amine (or outer) side, 2 acyl side, 3 side chain; on linkers, the order of the positions; unused ones are H or OH. Bridge positions count the residues as written; N and C are the ends. Square brackets hold non-standard residues; d marks the D form. Peptide text beside a SMILES is read from it. X3 = C=CCCCC(CCCC=C)(N[*:1])C(=O)[*:2]; R8 = C=CCCCCCC[C@@](C)(N)C(=O)O; S8 = C=CCCCCCC[C@](C)(N)C(=O)O; S5 = C=CCCC[C@](C)(N)C(=O)O; Nle = CCCC[C@H](N)C(=O)O

Chain of HDM2 (Q00987 whole entry, looked up): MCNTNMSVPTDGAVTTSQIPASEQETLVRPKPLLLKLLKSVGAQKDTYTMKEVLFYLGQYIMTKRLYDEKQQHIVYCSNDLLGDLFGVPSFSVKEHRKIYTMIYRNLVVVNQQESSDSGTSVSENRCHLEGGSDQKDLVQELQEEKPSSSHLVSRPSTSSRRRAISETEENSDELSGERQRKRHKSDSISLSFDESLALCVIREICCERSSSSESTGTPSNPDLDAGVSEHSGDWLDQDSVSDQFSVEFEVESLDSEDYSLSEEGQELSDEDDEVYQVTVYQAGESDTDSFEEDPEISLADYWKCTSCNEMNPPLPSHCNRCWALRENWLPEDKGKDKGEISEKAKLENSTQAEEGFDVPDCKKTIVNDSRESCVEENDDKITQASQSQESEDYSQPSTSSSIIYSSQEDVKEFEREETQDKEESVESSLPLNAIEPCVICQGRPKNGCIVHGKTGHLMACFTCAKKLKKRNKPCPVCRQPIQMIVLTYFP

Compound `C=CCCCCCC[C@](C)(NC(=O)[C@H](CC(C)C)NC(=O)[C@H](CC(C)C)NC(=O)[C@H](CCCNC(=N)N)NC(=O)[C@H](Cc1c[nH]c2ccccc12)NC(=O)[C@H](CC(C)C)NC(=O)[C@H](CC(N)=O)NC(=O)C(CCCC=C)(CCCC=C)NC(=O)[C@H](Cc1ccccc1)NC(=O)[C@@H](NC(=O)[C@H](CCC(N)=O)NC(=O)[C@](C)(CCCC=C)NC(=O)[C@H](CO)NC(=O)[C@H](CCC(N)=O)NC(C)=O)[C@@H](C)O)C(=O)N[C@@H](CCC(N)=O)C(=O)N[C@@H](CC(N)=O)C(N)=O` (Ac-QS[S5]QTF[X3]NLWRLL[S8]QN-NH2) returned a helicity in series [1] of 99%.

`CC(=O)N[C@@H](CCC(N)=O)C(=O)N[C@H](C(=O)N[C@@H](Cc1ccccc1)C(=O)N[C@]1(C)CCCCCCC=CCCC[C@@](C)(C(=O)N[C@@H](CO)C(N)=O)NC(=O)[C@H](CC(C)C)NC(=O)[C@H](CCC(N)=O)NC(=O)[C@H](CO)NC(=O)[C@H](Cc2c[nH]c3ccccc23)NC(=O)[C@H](Cc2c[nH]c3ccccc23)NC(=O)[C@H](Cc2c[nH]cn2)NC1=O)[C@@H](C)O` (Ac-QTF[R8]HWWSQL[S5]S-NH2; staple 4-11): the helicity in series [1] came out at 21.6%.

`CC(=O)N[C@@H](CCCNC(=N)N)C(=O)N[C@@H](CO)C(=O)N[C@@H](CCC(N)=O)C(=O)N[C@@H](CCC(N)=O)C(=O)N[C@H](C(=O)N[C@@H](Cc1ccccc1)C(=O)N[C@]1(C)CCCCCCC=CCCC[C@@](C)(C(=O)N[C@@H](CCC(N)=O)C(=O)N[C@@H](CC(N)=O)C(N)=O)NC(=O)[C@H](CC(C)C)NC(=O)[C@H](CC(C)C)NC(=O)[C@H](CCCNC(=N)N)NC(=O)[C@H](Cc2c[nH]c3ccccc23)NC(=O)[C@H](CC(C)C)NC(=O)[C@H](CC(N)=O)NC1=O)[C@@H](C)O` (Ac-RSQQTF[R8]NLWRLL[S5]QN-NH2; staple 7-14) gave a helicity in series [1] of 62.3%.

`CCCC[C@H](NC(C)=O)C(=O)N1CCC[C@H]1C(=O)N[C@@H](CCCNC(=N)N)C(=O)N[C@@H](Cc1ccccc1)C(=O)N[C@]1(C)CCCCCCC=CCCC[C@@](C)(C(N)=O)NC(=O)[C@H](CC(C)C)NC(=O)[C@H](CC(C)C)NC(=O)[C@H](CCCNC(=N)N)NC(=O)[C@H](Cc2c[nH]c3ccccc23)NC(=O)[C@H](Cc2ccc(O)cc2)NC(=O)[C@H](CC(N)=O)NC1=O` (Ac-[Nle]PRF[R8]NYWRLL[S5]-NH2; staple 5-12) gave a helicity in series [1] of 54.4%.

In series [1], `CCCC[C@H](NC(C)=O)C(=O)N1CCC[C@H]1C(=O)N[C@@H](CCCNC(=N)N)C(=O)N[C@@H](Cc1ccccc1)C(=O)N[C@]1(C)CCCCCCC=CCCC[C@@](C)(C(=O)N[C@@H](CCC(N)=O)C(=O)N[C@@H](CC(N)=O)C(N)=O)NC(=O)[C@H](CC(C)C)NC(=O)[C@H](CC(C)C)NC(=O)[C@H](CCCNC(=N)N)NC(=O)[C@H](Cc2c[nH]c3ccccc23)NC(=O)[C@H](Cc2ccc(O)cc2)NC(=O)[C@H](CC(N)=O)NC1=O` (Ac-[Nle]PRF[R8]NYWRLL[S5]QN-NH2; staple 5-12) had a helicity of 62.6%.

Turning to `CC(=O)N[C@@H](Cc1c[nH]c2ccccc12)C(=O)N[C@H](C(=O)N[C@@H](Cc1ccccc1)C(=O)N[C@]1(C)CCCCCCC=CCCC[C@@](C)(C(=O)N[C@@H](CO)C(N)=O)NC(=O)[C@H](CC(C)C)NC(=O)[C@H](CCC(N)=O)NC(=O)[C@H](C)NC(=O)[C@H](Cc2c[nH]c3ccccc23)NC(=O)[C@H](Cc2ccc(O)cc2)NC(=O)[C@H](Cc2c[nH]cn2)NC1=O)[C@@H](C)O` [SP-256, Ac- W T F $r8 H Y W A Q L $ S -NH2] (Ac-WTF[R8]HYWAQL[S5]S-NH2; staple 4-11), in series [2], the IC50 turned out to be 185 nM.

Ac-MPRFMDYWEGLN-NH2 came in with a helicity in series [1] of 7.5%.

With Ac-QSQQTFSNLWRLLPQN-NH2, in series [1], the helicity is 5%.

In turn, Ac-QTFEHWWSQLLS-NH2 displayed a helicity in series [1] of 21.6%.

Consider Ac-TSFAEYWNLLSP-NH2, for which the helicity in series [1] was 6.8%.
